Measured values from patent publication US20160287696A1, “PAN POLLEN IMMUNOGENS AND METHODS AND USES FOR IMMUNE RESPONSE MODULATION” (LA JOLLA INSTITUTE FOR ALLERGY AND IMMUNOLOGY, priority 2013, published 2016).

B1: NTGA 86/51: Phl p wild type full length protein from which PG+ peptides of NTGA's 86 and 51 derive (protein)
chain: MSPAEPTREESVYMAKLAEQAERYEEMVEFMERVAKATGGAGPGEELSVEERNLLSVAYKNVIGARRASWRIISSIEQKEEGRGNDAHATTIRSYRSKIEAELAKICDGILALLDSHLVPSAGAAESKVFYLKMKGDYHRYLAEFKSGAERKEAAESTMNSYKAAQDIALADLAPTHPIRLGLALNFSVFYYEILNSPDRACNLAKQAFDEAISELDSLGEESYKDSTLIMQLLRDNLTLWTSDTNEDGGDEIKEAPAPKESGD
modifications: Phleum Pratense
notes: Phl p wild type full length protein from which PG+ peptides of NTGA's 86 and 51 derive
B2: ovalbumin (protein, UniProt P01012 2-386, looked up)
Ovalbumin: GSIGAASMEFCFDVFKELKVHHANENIFYCPIAIMSALAMVYLGAKDSTRTQINKVVRFDKLPGFGDSIEAQCGTSVNVHSSLRDILNQITKPNDVYSFSLASRLYAEERYPILPEYLQCVKELYRGGLEPINFQTAADQARELINSWVESQTNGIIRNVLQPSSVDSQTAMVLVNAIVFKGLWEKAFKDEDTQAMPFRVTEQESKPVQMMYQIGLFRVASMASEKMKILELPFASGTMSMLVLLPDEVSGLEQLESIINFEKLTEWTSSNVMEERKIKVYLPRMKMEEKYNLTSVLMAMGITDVFSSSANLSGISSAESLKISQAVHAAHAEINEAGREVVGSAEAGVDAASVSEEFRADHPFLFCIKHIATNAVLFFGRCVSP
notes: unrelated protein ovalbumin used as model allergen
B3: NTGA 6: Phl p wild type sequence, Table 2 (protein)
chain: MADEKLAKLREAVAGLPQISDNEKSGFISLVSRYLSGEEEHIEWPKIHTPTDEVVVPYDTVDAPPEDLEATKALLDKLAVLKLNGGLGTTMGCTGPKSVIEVRNGFTFLDLIVLQIESLNKKYGSNVPLLLMNSFNTHEDTLKIVEKYANSSIDIHTFNQSQYPRVVADEFLPWPSKGKTDKDGWYPPGHGDIFPSLMNSGKLDLLLSQGKEYVFIANSDNLGAIVDMKILNHLIHKQNEYCMEVTPKTLADVKGGTLISYEGRVQLLEIAQVPDAHVDEFKSIEKFKIFNTNNLWVNLKAIKRLVEADALKMEIIPNPKEVDGVKVLQLETAAGAAIRFFDHAIGINVPRSRFLPVKATSDLQLVQSDLYTLVDGFVTRNSARTDPSNPSIELGPEFKKVGSFLGRFKSIPSIVELDSLKVSGDVWFGSGIVLKGKVTITAKPGVKLEIPDGAVLENKDINGAEDL
modifications: Phleum Pratense

What was measured:
[1] = test system: cultured PBMCs of the allergic donors; experiment: ELISPOT of IL-5 or IFNg production by cultured PBMCs of TG allergic donors in response to peptide; type: cell-based, human; conditions: for NTGA's containing at least one T cell epitope, Th+ (Col 2): NTGA number given = criterion met, TG allergic donors n=20
In short: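 PBMCs from Timothy grass-allergic donors (n=20), expanded in vitro with TG extract (50 μg/mL) or peptide pool, then plated at 1×10^5 cells/well with single 15-mer peptide (10 μg/mL). IL-5 or IFNg measured by ELISPOT; peptide response positive at ≥20 SFCs/10^6 PBMCs, P .05, stimulation index ≥2; value is number of responding donors.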

splenocytes [2] = experiment: Sensitization pattern: in vitro proliferation (3H-thymidine) of splenocytes of mice sensitized to Phl p extract; type: cell-based, BALB/c mice; conditions: mice sensitized IP with Phl p extract; 6 days stimulation
From the text: Initially, the sensitization pattern of an immunogen of the invention (NTGA 86/51) was investigated in BALB/c mice sensitized to Phl p extract (FIG. 2). For the purposes of these studies, the immunogen were expressed in E. Coli using standard expression protocols.
Mice were sensitized by one intraperitoneal injection with Phl p extract adsorbed to aluminium hydroxide. Eleven days later the mice were euthanized and splenocytes were stimulated in vitro with Phl p extract, Phl p 1, Phl p 5, NTGA 86/51. The cells were incubated for 6 days at 37° C. under 5% CO2 and incorporated 3H-thymidine was counted and used as a measure for T cell proliferation.

splenocytes [3] = experiment: Prophylactic SLIT tolerance induction in mice, splenocyte proliferation; type: in vivo, BALB/c mice; conditions: prophylactic SLIT two weeks; for tolerance towards the immunogen itself (proliferation of splenocytes vs buffer (sham) treated mice): FIG. 3A / 3C
From the text: Then the tolerance induction of NTGA 86/51 was investigated in a prophylactic mice model using sublingual administration (FIG. 3)
The ability of NTGA 86/51 and NTGA 6 to induce prophylactic tolerance was investigated by SLIT treating naive BALB/c mice with NTGA 86/51 or NTGA 6 for two weeks (Monday-Friday) followed by one Phl p extract sensitization or sensitization to the immunogen itself (NTGA 86/51 or NTGA 6) as described above. Eleven days after the sensitization, splenocytes were harvested and stimulated in vitro with NTGA 86/51 as well as Phl p extract.

splenocytes [4] = experiment: Bystander tolerance induction by prophylactic SLIT in mice, IP sensitization with NTGA 86/51 together with OVA; type: in vivo; conditions: for NTGA 86/51 specific in vitro proliferation of splenocytes vs buffer treated mice: FIG. 4
From the text: Bystander tolerance induction by prophylactic SLIT treatment with A0086 (FIG. 4). The ability of NTGA 86/51 to induce bystander tolerance, i.e. to induce tolerance against a non-related protein was investigated by SLIT treating the mice for two weeks with NTGA 86/51 followed by an IP sensitization with NTGA 86/51 together with the unrelated protein ovalbumin (OVA). Following this splenocytes were stimulated in vitro either with NTGA 86/51to confirm the ability of this protein to induce tolerance towards itself, or with OVA to investigate if NTGA 86/51 can induce bystander tolerance towards an unrelated protein.

Molecule | NTGA's containing at least one T cell epitope, Th+ (Col 2) [1] | in vitro T-cell response (splenocyte proliferation) compared to the response to Phl p 5 (splenocytes [2]) | in vitro T-cell response (splenocyte proliferation) compared to the response towards the Phl p extract (splenocytes [2]) | tolerance towards the immunogen itself (proliferation of splenocytes vs buffer (sham) treated mice) (splenocytes [3]) | tolerance towards Phl p extract (proliferation of splenocytes vs buffer (sham) treated mice) (splenocytes [3]; FIG. 3B) | NTGA 86/51 specific in vitro proliferation of splenocytes vs buffer treated mice (splenocytes [4]) | OVA specific in vitro proliferation of splenocytes vs buffer treated mice (bystander tolerance) (splenocytes [4]; FIG. 4B) | immune reactivity (SFC counts in ELISPOT) of highly conserved PG+ peptides derived from the NTGA [1] | No of PG+ & th+ peptides per NTGA ([1]; Table 6, PG+ peptides recognized by T cells of grass allergic donors (n=20)) | No of PP & Th+ peptides per NTGA ([1]; Table 6, PP peptides recognized by T cells of grass allergic donors (n=20)) | # Th+ ([1]; Table 7, peptides per NTGA recognized by T cells of grass allergic donors (n=20)) | T cell reactivity of sequences contained in the protein ([1]; among top pan-pollen NTGA's ranked by number of PP peptides) | PG+ peptides recognized by grass allergic donors ([1]; n=20 grass allergic donors, PG+ peptides of the NTGA)
B1 | 86/51 | much weaker | much weaker | capable of inducing tolerance towards the immunogen itself | capable of inducing tolerance | reduced proliferation | decreased |  |  |  |  |  | 
B2 |  |  |  |  |  | able to downregulate |  |  |  |  |  |  | 
B3 | 6 |  |  | capable of inducing tolerance towards itself |  |  |  | high immune reactivity | 22 | 14 | 9 | highly T cell reactive sequences | two
